Patent US20180340025A1 (Novartis, published 2018)

T1: human LAG-3 expressed on cells (human, UniProt P18627 23-525)
T1 construct: whole, on cells; Treated as one protein; the host cell is named under assay; also called LAG-3-expressing CHO cells; LAG-3-transfected CHO cells
T1 sequence (looked up): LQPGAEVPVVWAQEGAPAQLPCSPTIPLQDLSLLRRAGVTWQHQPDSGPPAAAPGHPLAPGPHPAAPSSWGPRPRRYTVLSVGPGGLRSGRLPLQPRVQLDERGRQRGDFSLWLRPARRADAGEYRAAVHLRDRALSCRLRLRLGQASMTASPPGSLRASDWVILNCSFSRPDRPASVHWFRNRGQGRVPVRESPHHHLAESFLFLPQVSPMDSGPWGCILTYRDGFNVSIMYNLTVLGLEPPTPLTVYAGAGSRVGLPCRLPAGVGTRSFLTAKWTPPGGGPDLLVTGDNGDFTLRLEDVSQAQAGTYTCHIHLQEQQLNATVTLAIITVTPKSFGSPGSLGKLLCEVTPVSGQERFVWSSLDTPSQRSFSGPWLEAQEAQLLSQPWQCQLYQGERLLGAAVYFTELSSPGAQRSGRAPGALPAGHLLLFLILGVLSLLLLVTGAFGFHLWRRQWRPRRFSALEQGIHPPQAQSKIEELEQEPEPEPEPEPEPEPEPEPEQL


Key:
[1] = biological target: T1, human LAG-3 expressed on cells; experiment: rank of the clone among the humanized clones by the FACS binding data on LAG-3-expressing cells
[2] = biological target: T1, human LAG-3 expressed on cells; experiment: rank of the clone by the competition binding data (test mAb against FITC-labeled murine BAP050 on LAG-3-expressing CHO cells), curve position relative to the chimeric mAb in two experiments
Experimental: Incubations with the mAb mixtures having different concentration ratios of test mAb to labeled mAb was at 4° C. for 30 min. […] The experiment was performed twice.
Such a ranking system was used in FIG. 6.

[3] = biological target: T1, human LAG-3 expressed on cells; experiment: FACS competition: serial dilutions of the test mAb against a constant concentration of FITC-labeled murine BAP050 on LAG-3-expressing CHO cells; MFI of bound labelled mAb

| Ranking, Binding data [1] | Ranking, Compet. data [2] | binding result [3] | Binder |
| --- | --- | --- | --- |
| 20 | 20 |  | BAP050-hum16 (antibody, human IgG4 S228P, kappa, V domains shown, humanized IgG4(S228P)/kappa, transient CHO supernatant) VH: EVQLVQSGAEVKKPGESLRISCKGSGFTLTNYGMNWVRQATGQGLEWMGWINTDTGEPTYADDFKGRVTISADKSISTAYLQWSSLKASDTAMYYCARNPPYYYGTNNAEAMDYWGQGTTVTVSS VL: EIVLTQSPDFQSVTPKEKVTITCSSSQDISNYLNWYQQKPGQAPRLLIYYTSTLHLGVPSRFSGSGSGTDFTLTISSLQPEDFATYYCQQYYNLPWTFGQGTKVEIKR |
|  |  | binds | BAP050-hum05-Ser (antibody, human IgG4 S228P, kappa, C84S in VHFW3 of BAP050-hum05; IgG4(S228P)/kappa; also called clone No. 5S; huBAP050(Ser) clone) heavy: not shown light: EIVLTQSPATLSLSPGERATLSCSSSQDISNYLNWYQQKPGKAPKLLIYYTSTLHLGVPSRFSGSGSGTDFTFTISSLEAEDAATYYCQQYYNLPWTFGQGTKVEIKRTVAAPSVFIFPPSDEQLKSGTASVVCLLNNFYPREAKVQWKVDNALQSGNSQESVTEQDSKDSTYSLSSTLTLSKADYEKHKVYACEVTHQGLSSPVTKSFNRGEC |
|  |  | binds | BAP050-hum11-Ser (antibody, human IgG4 S228P, kappa, V domains shown, C84S in VHFW3 of BAP050-hum11; IgG4(S228P)/kappa; also called clone No. 11S) VH: QVQLVQSGAEVKKPGASVKVSCKASGFTLTNYGMNWVRQARGQRLEWIGWINTDTGEPTYADDFKGRFVFSLDTSVSTAYLQISSLKAEDTAVYYCARNPPYYYGTNNAEAMDYWGQGTTVTVSS VL: DIQMTQSPSSLSASVGDRVTITCSSSQDISNYLNWYLQKPGQSPQLLIYYTSTLHLGVPSRFSGSGSGTEFTLTISSLQPDDFATYYCQQYYNLPWTFGQGTKVEIKR |
| 9 | > 3 |  | BAP050-hum17 (antibody, human IgG4 S228P, kappa, V domains shown, humanized IgG4(S228P)/kappa, transient CHO supernatant) VH: QVQLVQSGSELKKPGASVKVSCKASGFTLTNYGMNWVRQAPGQGLEWMGWINTDTGEPTYADDFKGRFVFSLDTSVSTAYLQISTLKAEDTATYFCARNPPYYYGTNNAEAMDYWGQGTTVTVSS VL: DIQMTQSPSSLSASVGDRVTITCSSSQDISNYLNWYQQKPGKAPKLLIYYTSTLHLGVPSRFSGSGSGTDFTFTISSLQPEDIATYYCQQYYNLPWTFGQGTKVEIKR |
| 20 | 20 |  | BAP050-hum15 (antibody, human IgG4 S228P, kappa, V domains shown, humanized IgG4(S228P)/kappa, transient CHO supernatant) VH: EVQLVQSGAEVKKPGATVKISCKVSGFTLTNYGMNWIRQSPSRGLEWLGWINTDTGEPTYADDFKGRFVFSLDTSVSTAYLQICSLKAEDTAVYYCARNPPYYYGTNNAEAMDYWGQGTTVTVSS VL: EIVLTQSPDFQSVTPKEKVTITCSSSQDISNYLNWYQQKPGQAPRLLIYYTSTLHLGVPSRFSGSGSGTDFTLTISSLQPEDFATYYCQQYYNLPWTFGQGTKVEIKR |
|  |  | binds | BAP050-hum12-Ser (antibody, human IgG4 S228P, kappa, V domains shown, C84S in VHFW3 of BAP050-hum12; IgG4(S228P)/kappa; also called huBAP050(Ser) clone) VH: QVQLVQSGAEVKKPGASVKVSCKASGFTLTNYGMNWVRQARGQRLEWIGWINTDTGEPTYADDFKGRFVFSLDTSVSTAYLQISSLKAEDTAVYYCARNPPYYYGTNNAEAMDYWGQGTTVTVSS VL: EIVLTQSPDFQSVTPKEKVTITCSSSQDISNYLNWYQQKPGQAPRLLIYYTSTLHLGVPSRFSGSGSGTDFTLTISSLQPEDFATYYCQQYYNLPWTFGQGTKVEIKR |
|  |  | binds | BAP050-hum13-Ser (antibody, human IgG4 S228P, kappa, V domains shown, C84S in VHFW3 of BAP050-hum13; IgG4(S228P)/kappa; also called clone No. 13S (printed 135); huBAP050(Ser) clone) VH: QVQLVQSGAEVKKPGASVKVSCKASGFTLTNYGMNWVRQAPGQGLEWMGWINTDTGEPTYADDFKGRFVFSLDTSVSTAYLQISSLKAEDTAVYYCARNPPYYYGTNNAEAMDYWGQGTTVTVSS VL: DIQMTQSPSSLSASVGDRVTITCSSSQDISNYLNWYQQKPGKAPKLLIYYTSTLHLGIPPRFSGSGYGTDFTLTINNIESEDAAYYFCQQYYNLPWTFGQGTKVEIKR |
|  |  | binds | BAP050-hum09-Ser (antibody, human IgG4 S228P, kappa, V domains shown, C84S in VHFW3 of BAP050-hum09; IgG4(S228P)/kappa; also called clone No. 9S; huBAP050(Ser) clone) VH: QVQLVQSGAEVKKPGASVKVSCKASGFTLTNYGMNWVRQARGQRLEWIGWINTDTGEPTYADDFKGRFVFSLDTSVSTAYLQISSLKAEDTAVYYCARNPPYYYGTNNAEAMDYWGQGTTVTVSS VL: DIQMTQSPSSLSASVGDRVTITCSSSQDISNYLNWYQQKPGKAPKLLIYYTSTLHLGIPPRFSGSGYGTDFTLTINNIESEDAAYYFCQQYYNLPWTFGQGTKVEIKR |

Second part, the binder before the results:

| Binder | Ranking, Binding data [1] | Ranking, Compet. data [2] | binding result [3] |
| --- | --- | --- | --- |
| BAP050-hum02-Ser (antibody, human IgG4 S228P, kappa, V domains shown, C84S in VHFW3 of BAP050-hum02; IgG4(S228P)/kappa; also called clone No. 2S; huBAP050(Ser) clone) VH: EVQLVQSGAEVKKPGATVKISCKVSGFTLTNYGMNWVRQAPGQGLEWMGWINTDTGEPTYADDFKGRFVFSLDTSVSTAYLQISSLKAEDTAVYYCARNPPYYYGTNNAEAMDYWGQGTTVTVSS VL: DIQMTQSPSSLSASVGDRVTITCSSSQDISNYLNWYQQKPGKAPKLLIYYTSTLHLGIPPRFSGSGYGTDFTLTINNIESEDAAYYFCQQYYNLPWTFGQGTKVEIKR |  |  | binds |
| BAP050-hum10 (antibody, human IgG4 S228P, kappa, V domains shown, humanized IgG4(S228P)/kappa, transient CHO supernatant) VH: QVQLVQSGAEVKKPGASVKVSCKASGFTLTNYGMNWVRQARGQRLEWIGWINTDTGEPTYADDFKGRFVFSLDTSVSTAYLQICSLKAEDTAVYYCARNPPYYYGTNNAEAMDYWGQGTTVTVSS VL: EIVLTQSPATLPVTLGQPASISCSSSQDISNYLNWYQQKPGQAPRLLIYYTSTLHLGVPSRFSGSGSGTDFTFTISSLEAEDAATYYCQQYYNLPWTFGQGTKVEIKR | 9 | 2 |  |
| BAP050-hum14 (antibody, human IgG4 S228P, kappa, V domains shown, humanized IgG4(S228P)/kappa, transient CHO supernatant) VH: EVQLVQSGAEVKKPGATVKISCKVSGFTLTNYGMNWIRQSPSRGLEWLGWINTDTGEPTYADDFKGRFVFSLDTSVSTAYLQICSLKAEDTAVYYCARNPPYYYGTNNAEAMDYWGQGTTVTVSS VL: EIVLTQSPATLPVTLGQPASISCSSSQDISNYLNWYQQKPGQAPRLLIYYTSTLHLGVPSRFSGSGSGTDFTFTISSLEAEDAATYYCQQYYNLPWTFGQGTKVEIKR | 9 | > 3 |  |
| BAP050-hum09 (antibody, human IgG4 S228P, kappa, V domains shown, humanized IgG4(S228P)/kappa, transient CHO supernatant; also called humanized clone No. 09) VH: QVQLVQSGAEVKKPGASVKVSCKASGFTLTNYGMNWVRQARGQRLEWIGWINTDTGEPTYADDFKGRFVFSLDTSVSTAYLQICSLKAEDTAVYYCARNPPYYYGTNNAEAMDYWGQGTTVTVSS VL: DIQMTQSPSSLSASVGDRVTITCSSSQDISNYLNWYQQKPGKAPKLLIYYTSTLHLGIPPRFSGSGYGTDFTLTINNIESEDAAYYFCQQYYNLPWTFGQGTKVEIKR | 8 | 2 |  |
| BAP050-hum11 (antibody, human IgG4 S228P, kappa, V domains shown, humanized IgG4(S228P)/kappa, transient CHO supernatant; also called humanized clone No. 11) VH: QVQLVQSGAEVKKPGASVKVSCKASGFTLTNYGMNWVRQARGQRLEWIGWINTDTGEPTYADDFKGRFVFSLDTSVSTAYLQICSLKAEDTAVYYCARNPPYYYGTNNAEAMDYWGQGTTVTVSS VL: DIQMTQSPSSLSASVGDRVTITCSSSQDISNYLNWYLQKPGQSPQLLIYYTSTLHLGVPSRFSGSGSGTEFTLTISSLQPDDFATYYCQQYYNLPWTFGQGTKVEIKR | 2 | 2 |  |
| BAP050-hum13 (antibody, human IgG4 S228P, kappa, V domains shown, humanized IgG4(S228P)/kappa, transient CHO supernatant; also called humanized clone No. 13) VH: QVQLVQSGAEVKKPGASVKVSCKASGFTLTNYGMNWVRQAPGQGLEWMGWINTDTGEPTYADDFKGRFVFSLDTSVSTAYLQICSLKAEDTAVYYCARNPPYYYGTNNAEAMDYWGQGTTVTVSS VL: DIQMTQSPSSLSASVGDRVTITCSSSQDISNYLNWYQQKPGKAPKLLIYYTSTLHLGIPPRFSGSGYGTDFTLTINNIESEDAAYYFCQQYYNLPWTFGQGTKVEIKR | 9 | 3 |  |
| BAP050-hum12 (antibody, human IgG4 S228P, kappa, V domains shown, humanized IgG4(S228P)/kappa, transient CHO supernatant; also called humanized clone No. 12) VH: QVQLVQSGAEVKKPGASVKVSCKASGFTLTNYGMNWVRQARGQRLEWIGWINTDTGEPTYADDFKGRFVFSLDTSVSTAYLQICSLKAEDTAVYYCARNPPYYYGTNNAEAMDYWGQGTTVTVSS VL: EIVLTQSPDFQSVTPKEKVTITCSSSQDISNYLNWYQQKPGQAPRLLIYYTSTLHLGVPSRFSGSGSGTDFTLTISSLQPEDFATYYCQQYYNLPWTFGQGTKVEIKR | 3 | 2 |  |
| BAP050-hum08 (antibody, human IgG4 S228P, kappa, humanized IgG4(S228P)/kappa, transient CHO supernatant) heavy: not shown light: EIVLTQSPDFQSVTPKEKVTITCSSSQDISNYLNWYQQKPGQAPRLLIYYTSTLHLGVPSRFSGSGSGTDFTLTISSLQPEDFATYYCQQYYNLPWTFGQGTKVEIKRTVAAPSVFIFPPSDEQLKSGTASVVCLLNNFYPREAKVQWKVDNALQSGNSQESVTEQDSKDSTYSLSSTLTLSKADYEKHKVYACEVTHQGLSSPVTKSFNRGEC | 4 | > 3 |  |
